The values below come from patent US20150299328A1.

For the assay, the target named is HIR extracellular domain (ECD) (human) (UniProt P06213). Nature of the assay: ELISA, HIR ECD plated.

Substance “CHO-derived HIRMAb-IDUA fusion protein (antibody)” displayed an EC50 of 0.75 nM.

A word on the EC50: it is the concentration needed to bring the measured effect to its halfway point. Low readings indicate an effect from little substance, high ones a need for much substance.
